Measurements as given in PMC5379943 (The Journal of Cell Biology, 2017).

Target: T1, His-PLEKHM1 (1–300) (UniProt Q9Y4G2 1-300)
T1 construct: PLEKHM1, residues 1–300; also called His-tagged PLEKHM1 (1–300); source: purified
Assay: pull-down; competition: GST-Arl8b as bait incubated with His-PLEKHM1 (1–300) and increasing concentrations of MBP-SKIP (1–300); immunoblot
Conditions: both partners purified

B1: GST-Arl8b (natural protein, UniProt Q9NVJ2 1-186, looked up)
chain: MLALISRLLDWFRSLFWKEEMELTLVGLQYSGKTTFVNVIASGQFSEDMIPTVGFNMRKVTKGNVTIKIWDIGGQPRFRSMWERYCRGVNAIVYMIDAADREKIEASRNELHNLLDKPQLQGIPVLVLGNKRDLPNALDEKQLIEKMNLSAIQDREICCYSISCKEKDNIDITLQWLIQHSKSRRS
notes: Arl8b small GTPase; source: E. coli BL21, purified on glutathione resin
  binding result: binds
